Here are results for 125 sequences from the supplement of paper PMC9112550, “Optimization of the antimicrobial peptide Bac7 by deep mutational scanning” (BMC Biology, 2022).
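Note: peptides expressed intracellularly from a pBAD plasmid library in pooled LB shake-flask culture, induced with 0.3% L-arabinose, DNA abundance read by NGS, three biological replicates, DESeq2 with apeglm shrinkage.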

The subject of the data set is Escherichia coli TOP10. Briefly: shrunken log2 fold change of peptide-encoding DNA abundance (4.5 h post-induction vs induction); higher = less antimicrobial activity (less host growth inhibition). Particulars: time post-induction: 4.5 h; library: site-saturation at positions 5, 18, 19, 20.
For RRIRWRPPRLPRPRPRPLWYPRP, the “shrunken log2 fold change” value is -0.225. The same measure for RRIRCRPPRLPRPRPRPFIHPRP: -1.43; for RRIRCRPPRLPRPRPRPQVTPRP: -0.102. Next, RRIRYRPPRLPRPRPRPLFEPRP: -0.414; RRIRCRPPRLPRPRPRPNWTPRP: -0.0217.

For the sequence RRIRYRPPRLPRPRPRPPMWPRP, the “shrunken log2 fold change” value was determined as 0.53. Next, RRIRTRPPRLPRPRPRPATHPRP: -0.152; RRIRYRPPRLPRPRPRPYCIPRP: -1.32; RRIRFRPPRLPRPRPRPPNLPRP: -0.0642. Turning to RRIRSRPPRLPRPRPRPDMMPRP, the “shrunken log2 fold change” value was -0.36. The same measure for RRIRDRPPRLPRPRPRPIQLPRP: 0.0401; for RRIRFRPPRLPRPRPRPQEHPRP: -0.115. The same measure for RRIRKRPPRLPRPRPRPPHIPRP: 0.41; for RRIRYRPPRLPRPRPRPSIEPRP: -1.02. Next, RRIRRRPPRLPRPRPRPFWDPRP: -0.0897; RRIRRRPPRLPRPRPRPTAVPRP: 0.606. As for RRIRNRPPRLPRPRPRPYWDPRP, the “shrunken log2 fold change” value was -0.54. For the sequence RRIRIRPPRLPRPRPRPWTEPRP, the “shrunken log2 fold change” value was -0.843.

Consider RRIRMRPPRLPRPRPRPMYNPRP, for which the “shrunken log2 fold change” value is -0.815. On to RRIRMRPPRLPRPRPRPAMKPRP, for which the “shrunken log2 fold change” value was -0.00492. Next, RRIRERPPRLPRPRPRPFQKPRP: -0.178. For RRIRERPPRLPRPRPRPTDVPRP, the “shrunken log2 fold change” value is -0.0755. In the case of RRIRFRPPRLPRPRPRPRTGPRP, the “shrunken log2 fold change” value was found to be 0.0905.

As for RRIRMRPPRLPRPRPRPIKGPRP, the “shrunken log2 fold change” value is -0.0612.

Take RRIRLRPPRLPRPRPRPLHCPRP: the “shrunken log2 fold change” value was 0.118. The same measure for RRIRKRPPRLPRPRPRPRCMPRP: 0.401; for RRIRHRPPRLPRPRPRPISYPRP: 0.121. The same measure for RRIRIRPPRLPRPRPRPVFMPRP: -0.275; for RRIRNRPPRLPRPRPRPAYIPRP: -0.786.

For RRIRRRPPRLPRPRPRPTIWPRP, the “shrunken log2 fold change” value was found to be 0.251.

Consider RRIRDRPPRLPRPRPRPMSLPRP, for which the “shrunken log2 fold change” value is -0.558. Turning to RRIRPRPPRLPRPRPRPKYTPRP, the “shrunken log2 fold change” value is -0.414. As to RRIRRRPPRLPRPRPRPWCRPRP, the “shrunken log2 fold change” value stood at 1.02. On to RRIRGRPPRLPRPRPRPSIYPRP, for which the “shrunken log2 fold change” value is 0.302.

As to RRIRLRPPRLPRPRPRPTGAPRP, the “shrunken log2 fold change” value is -0.211. The same measure for RRIRYRPPRLPRPRPRPMYHPRP: -0.707.

RRIRCRPPRLPRPRPRPGNIPRP: the “shrunken log2 fold change” value was -0.198. With RRIRGRPPRLPRPRPRPVVQPRP, the “shrunken log2 fold change” value was found to be 0.94.

RRIRKRPPRLPRPRPRPYVGPRP: the “shrunken log2 fold change” value is -0.0717. The same measure for RRIRHRPPRLPRPRPRPQPIPRP: -0.13; for RRIRNRPPRLPRPRPRPICDPRP: -0.119; for RRIRQRPPRLPRPRPRPHLPPRP: 0.0272. The same measure for RRIRERPPRLPRPRPRPPGFPRP: 0.479; for RRIRKRPPRLPRPRPRPKKRPRP: 1.09; for RRIRRRPPRLPRPRPRPCTMPRP: -0.451.

As for RRIRLRPPRLPRPRPRPYIYPRP, the “shrunken log2 fold change” value is -1.24. Next, RRIRKRPPRLPRPRPRPCVNPRP: 0.0687. Next, RRIRVRPPRLPRPRPRPDYFPRP: -0.163.

With RRIRRRPPRLPRPRPRPFERPRP, the “shrunken log2 fold change” value came to 0.0145. Turning to RRIRWRPPRLPRPRPRPANLPRP, the “shrunken log2 fold change” value was -0.285.

In the case of RRIRIRPPRLPRPRPRPIWEPRP, the “shrunken log2 fold change” value is -0.0114.

Consider RRIRTRPPRLPRPRPRPYVFPRP, for which the “shrunken log2 fold change” value is -0.394. The same measure for RRIRNRPPRLPRPRPRPPVGPRP: 0.444; for RRIRSRPPRLPRPRPRPGIYPRP: -0.135.

Consider RRIRARPPRLPRPRPRPFWNPRP, for which the “shrunken log2 fold change” value came out at 0.127. RRIRKRPPRLPRPRPRPKTGPRP: the “shrunken log2 fold change” value came to 0.821. Take RRIRVRPPRLPRPRPRPYRDPRP: the “shrunken log2 fold change” value is -0.278. In the case of RRIRTRPPRLPRPRPRPAYPPRP, the “shrunken log2 fold change” value was -0.072. As to RRIRHRPPRLPRPRPRPTMPPRP, the “shrunken log2 fold change” value was -0.00312. Next, RRIRLRPPRLPRPRPRPMPVPRP: 0.132; RRIRLRPPRLPRPRPRPERGPRP: 0.538. With RRIRNRPPRLPRPRPRPDCLPRP, the “shrunken log2 fold change” value worked out at 0.0127. For the sequence RRIRARPPRLPRPRPRPPNIPRP, the “shrunken log2 fold change” value worked out at 0.0251. Next, RRIRNRPPRLPRPRPRPCADPRP: 1.47; RRIRVRPPRLPRPRPRPAADPRP: 0.437; RRIRPRPPRLPRPRPRPCCYPRP: -0.47.

Consider RRIRCRPPRLPRPRPRPNYDPRP, for which the “shrunken log2 fold change” value is -0.672.

Regarding RRIRCRPPRLPRPRPRPPQFPRP, the “shrunken log2 fold change” value amounted to 0.695. On to RRIRPRPPRLPRPRPRPMVTPRP, for which the “shrunken log2 fold change” value is -0.0789. On to RRIRCRPPRLPRPRPRPNAEPRP, for which the “shrunken log2 fold change” value was 0.118. In the case of RRIRNRPPRLPRPRPRPSHCPRP, the “shrunken log2 fold change” value was -0.801. Turning to RRIRNRPPRLPRPRPRPNRGPRP, the “shrunken log2 fold change” value is 0.0523.

Turning to RRIRPRPPRLPRPRPRPRLMPRP, the “shrunken log2 fold change” value came to 0.337. For RRIRCRPPRLPRPRPRPKHQPRP, the “shrunken log2 fold change” value is -0.0465. Regarding RRIRHRPPRLPRPRPRPVPDPRP, the “shrunken log2 fold change” value is -0.526. Regarding RRIRTRPPRLPRPRPRPFQLPRP, the “shrunken log2 fold change” value was -0.138.

For the sequence RRIRWRPPRLPRPRPRPRVSPRP, the “shrunken log2 fold change” value stood at 0.158. Turning to RRIRARPPRLPRPRPRPLEFPRP, the “shrunken log2 fold change” value was 0.231. Next, RRIRERPPRLPRPRPRPWFGPRP: 0.0197. For RRIRNRPPRLPRPRPRPDLSPRP, the “shrunken log2 fold change” value is -0.0537. Turning to RRIRYRPPRLPRPRPRPPVQPRP, the “shrunken log2 fold change” value was -0.0548. As to RRIRSRPPRLPRPRPRPQAEPRP, the “shrunken log2 fold change” value was -0.0131. As to RRIRWRPPRLPRPRPRPTGGPRP, the “shrunken log2 fold change” value came to 0.511. Regarding RRIRFRPPRLPRPRPRPYENPRP, the “shrunken log2 fold change” value was -0.463. On to RRIRIRPPRLPRPRPRPWWRPRP, for which the “shrunken log2 fold change” value is -0.0114.

On to RRIRPRPPRLPRPRPRPCPKPRP, for which the “shrunken log2 fold change” value was -0.0283. Take RRIRQRPPRLPRPRPRPRPMPRP: the “shrunken log2 fold change” value amounted to 0.303. The same measure for RRIRLRPPRLPRPRPRPIHLPRP: -0.453.

RRIRIRPPRLPRPRPRPKEHPRP: the “shrunken log2 fold change” value was -0.15. The same measure for RRIRWRPPRLPRPRPRPWHKPRP: -0.0356; for RRIRARPPRLPRPRPRPNTAPRP: 0.181. The same measure for RRIRRRPPRLPRPRPRPCRSPRP: -0.03. The same measure for RRIRRRPPRLPRPRPRPRQKPRP: 0.857; for RRIRKRPPRLPRPRPRPRERPRP: 0.358; for RRIRCRPPRLPRPRPRPAWEPRP: 0.0219.

Consider RRIRFRPPRLPRPRPRPGWQPRP, for which the “shrunken log2 fold change” value was determined as 0.188.

As for RRIRPRPPRLPRPRPRPWFHPRP, the “shrunken log2 fold change” value was 0.0116. For the sequence RRIRGRPPRLPRPRPRPSRHPRP, the “shrunken log2 fold change” value was 0.0789. Next, RRIRLRPPRLPRPRPRPASVPRP: -0.0571; RRIRIRPPRLPRPRPRPRARPRP: 0.456.

Regarding RRIRPRPPRLPRPRPRPEQSPRP, the “shrunken log2 fold change” value turned out to be 0.289. Take RRIRPRPPRLPRPRPRPHFNPRP: the “shrunken log2 fold change” value was -0.433. The same measure for RRIRIRPPRLPRPRPRPSTEPRP: -0.388. The same measure for RRIRKRPPRLPRPRPRPCRWPRP: -0.0708; for RRIRARPPRLPRPRPRPIFIPRP: 0.127.

For the sequence RRIRFRPPRLPRPRPRPDGEPRP, the “shrunken log2 fold change” value came out at 0.0232. Turning to RRIRRRPPRLPRPRPRPPWRPRP, the “shrunken log2 fold change” value was 0.757.

On to RRIRNRPPRLPRPRPRPTTGPRP, for which the “shrunken log2 fold change” value was 0.0259. Next, RRIRQRPPRLPRPRPRPKRAPRP: 0.0973. Next, RRIRGRPPRLPRPRPRPDNVPRP: -0.011. The same measure for RRIRYRPPRLPRPRPRPQVSPRP: -0.849; for RRIRKRPPRLPRPRPRPAVMPRP: 0.881. With RRIRRRPPRLPRPRPRPTRYPRP, the “shrunken log2 fold change” value worked out at 0.337. Consider RRIRERPPRLPRPRPRPLCQPRP, for which the “shrunken log2 fold change” value is 0.00385.

On to RRIRSRPPRLPRPRPRPVWTPRP, for which the “shrunken log2 fold change” value is 0.241. For RRIRTRPPRLPRPRPRPLDIPRP, the “shrunken log2 fold change” value is -1.22. In the case of RRIRHRPPRLPRPRPRPKIIPRP, the “shrunken log2 fold change” value was -1.08.

As for RRIRARPPRLPRPRPRPHGYPRP, the “shrunken log2 fold change” value was found to be 0.0466. The same measure for RRIRLRPPRLPRPRPRPWKNPRP: -0.114.

For RRIRVRPPRLPRPRPRPTIEPRP, the “shrunken log2 fold change” value came to 0.061. Turning to RRIRIRPPRLPRPRPRPPLRPRP, the “shrunken log2 fold change” value was 0.0855. As to RRIRMRPPRLPRPRPRPMRIPRP, the “shrunken log2 fold change” value is 0.355. Consider RRIRMRPPRLPRPRPRPSSCPRP, for which the “shrunken log2 fold change” value stood at 0.112. The same measure for RRIRARPPRLPRPRPRPGQLPRP: 0.359; for RRIRQRPPRLPRPRPRPEGEPRP: 0.0215.
